# Patent US20130059772A1, “Use of Repeat Sequence Protein Polymers in Personal Care Compositions” (DANISCO US INC., priority 2003, published 2013)
# Positions count from the first letter of the chain named.
# B1: SELP58: SELP variant, 13 subunits (SEQ ID NO:31) (protein)
# chain: MDPVVLQRRDWENPGVTQLNRLAAHPPFASDPMGVGVPGVGVPGVGVPGVGVPGVGVPGVGVPGVGVPGVGVPGAGAGSGAGAGSGAGAGSGAGAGSGAGAGSGVGVPGVGVPGVGVPGVGVPGVGVPGVGVPGVGVPGVGVPGAGAGSGAGAGSGAGAGSGAGAGSGAGAGSGVGVPGVGVPGVGVPGVGVPGVGVPGVGVPGVGVPGVGVPGAGAGSGAGAGSGAGAGSGAGAGSGAGAGSGVGVPGVGVPGVGVPGVGVPGVGVPGVGVPGVGVPGVGVPGAGAGSGAGAGSGAGAGSGAGAGSGAGAGSGVGVPGVGVPGVGVPGVGVPGVGVPGVGVPGVGVPGVGVPGAGAGSGAGAGSGAGAGSGAGAGSGAGAGSGVGVPGVGVPGVGVPGVGVPGVGVPGVGVPGVGVPGVGVPGAGAGSGAGAGSGAGAGSGAGAGSGAGAGSGVGVPGVGVPGVGVPGVGVPGVGVPGVGVPGVGVPGVGVPGAGAGSGAGAGSGAGAGSGAGAGSGAGAGSGVGVPGVGVPGVGVPGVGVPGVGVPGVGVPGVGVPGVGVPGAGAGSGAGAGSGAGAGSGAGAGSGAGAGSGVGVPGVGVPGVGVPGVGVPGVGVPGVGVPGVGVPGVGVPGAGAGSGAGAGSGAGAGSGAGAGSGAGAGSGVGVPGVGVPGVGVPGVGVPGVGVPGVGVPGVGVPGVGVPGAGAGSGAGAGSGAGAGSGAGAGSGAGAGSGVGVPGVGVPGVGVPGVGVPGVGVPGVGVPGVGVPGVGVPGAGAGSGAGAGSGAGAGSGAGAGSGAGAGSGVGVPGVGVPGVGVPGVGVPGVGVPGVGVPGVGVPGVGVPGAGAGSGAGAGSGAGAGSGAGAGSGAGAGSGVGVPGVGVPGVGVPGVGVPGVGVPGVGVPGVGVPGVGVPGAGAGSGAGAGSGAGAGSGAGAGSGAGAGSMDPGRYQLSAGRYHYQLVWCQK
# modifications: SELP 58
# B2: SELP47E-3: SELP variant, 3 subunits, lysine substituted by glutamic acid (SEQ ID NO:28) (protein)
# chain: MDPVVLQRRDWENPGVTQLNRLAAHPPFASDPMGAGAGSGAGAGSGVGVPGVGVPGVGVPGVGVPGEGVPGVGVPGVGVPGVGVPGAGAGSGAGAGSGAGAGSGAGAGSGVGVPGVGVPGVGVPGVGVPGEGVPGVGVPGVGVPGVGVPGAGAGSGAGAGSGAGAGSGAGAGSGVGVPGVGVPGVGVPGVGVPGEGVPGVGVPGVGVPGVGVPGAGAGSGAGAGSGAGAMDPGRYQDLRSHHHHHH
# modifications: SELP 47E-3
# B3: SELP47R-3: SELP variant, 3 subunits, lysine substituted by arginine (SEQ ID NO:26) (protein)
# chain: B2 chain with D2P, E67R, E131R, E195R
# modifications: SELP 47R-3
# B4: SELP67K: SELP variant, 13 subunits (SEQ ID NO:30) (protein)
# chain: MDPVVLQRRDWENPGVTQLNRLAAHPPFASDPMGVGVPGVGVPGVGVPGVGVPGKGVPGVGVPGVGVPGVGVPGAGAGSGAGAGSGAGAGSGAGAGSGAGAGSGAGAGSGVGVPGVGVPGVGVPGVGVPGKGVPGVGVPGVGVPGVGVPGAGAGSGAGAGSGAGAGSGAGAGSGAGAGSGAGAGSGVGVPGVGVPGVGVPGVGVPGKGVPGVGVPGVGVPGVGVPGAGAGSGAGAGSGAGAGSGAGAGSGAGAGSGAGAGSGVGVPGVGVPGVGVPGVGVPGKGVPGVGVPGVGVPGVGVPGAGAGSGAGAGSGAGAGSGAGAGSGAGAGSGAGAGSGVGVPGVGVPGVGVPGVGVPGKGVPGVGVPGVGVPGVGVPGAGAGSGAGAGSGAGAGSGAGAGSGAGAGSGAGAGSGVGVPGVGVPGVGVPGVGVPGKGVPGVGVPGVGVPGVGVPGAGAGSGAGAGSGAGAGSGAGAGSGAGAGSGAGAGSGVGVPGVGVPGVGVPGVGVPGKGVPGVGVPGVGVPGVGVPGAGAGSGAGAGSGAGAGSGAGAGSGAGAGSGAGAGSGVGVPGVGVPGVGVPGVGVPGKGVPGVGVPGVGVPGVGVPGAGAGSGAGAGSGAGAGSGAGAGSGAGAGSGAGAGSGVGVPGVGVPGVGVPGVGVPGKGVPGVGVPGVGVPGVGVPGAGAGSGAGAGSGAGAGSGAGAGSGAGAGSGAGAGSGVGVPGVGVPGVGVPGVGVPGKGVPGVGVPGVGVPGVGVPGAGAGSGAGAGSGAGAGSGAGAGSGAGAGSGAGAGSGVGVPGVGVPGVGVPGVGVPGKGVPGVGVPGVGVPGVGVPGAGAGSGAGAGSGAGAGSGAGAGSGAGAGSGAGAGSGVGVPGVGVPGVGVPGVGVPGKGVPGVGVPGVGVPGVGVPGAGAGSGAGAGSGAGAGSGAGAGSGAGAGSGAGAGSGVGVPGVGVPGVGVPGVGVPGKGVPGVGVPGVGVPGVGVPGAGAGSGAGAGSGAGAGSGAGAGSGAGAGSGAGAGSMDPGRYQDLRSHHHHHH
# modifications: SELP 67K
# B5: SELP47K-3: SELP variant, 3 subunits, no lysine substitution (SEQ ID NO:27) (protein)
# chain: MDPVVLQRRDWENPGVTQLNRLAAHPPFASDPMGAGSGAGAGSGVGVPGVGVPGVGVPGVGVPGKGVPGVGVPGVGVPGVGVPGAGAGSGAGAGSGAGAGSGAGAGSGVGVPGVGVPGVGVPGVGVPGKGVPGVGVPGVGVPGVGVPGAGAGSGAGAGSGAGAGSGAGAGSGVGVPGVGVPGVGVPGVGVPGKGVPGVGVPGVGVPGVGVPGAGAGSGAGAGSGAGAMDPGRYQDLRSHHHHHH
# modifications: SELP-47K-3
# B6: SELP47E: SELP variant, 13 subunits, lysine substituted by glutamic acid (protein)
# chain: MDPVVLQRRDWENPGVTQLNRLAAHPPFASDPMGAGSGAGAGSGVGVPGVGVPGVGVPGVGVPGEGVPGVGVPGVGEPGVGVPGAGAGSGAGAGSGAGAGSGAGAGSGVGVPGVGVPGVGVPGVGVPGEGVPGVGVPGVGEPGVGVPGAGAGSGAGAGSGAGAGSGAGAGSGVGVPGVGVPGVGVPGVGVPGEGVPGVGVPGVGEPGVGVPGAGAGSGAGAGSGAGAGSGAGAGSGVGVPGVGVPGVGVPGVGVPGEGVPGVGVPGVGEPGVGVPGAGAGSGAGAGSGAGAGSGAGAGSGVGVPGVGVPGVGVPGVGVPGEGVPGVGVPGVGEPGVGVPGAGAGSGAGAGSGAGAGSGAGAGSGVGVPGVGVPGVGVPGVGVPGEGVPGVGVPGVGEPGVGVPGAGAGSGAGAGSGAGAGSGAGAGSGVGVPGVGVPGVGVPGVGVPGEGVPGVGVPGVGEPGVGVPGAGAGSGAGAGSGAGAGSGAGAGSGVGVPGVGVPGVGVPGVGVPGEGVPGVGVPGVGEPGVGVPGAGAGSGAGAGSGAGAGSGAGAGSGVGVPGVGVPGVGVPGVGVPGEGVPGVGVPGVGEPGVGVPGAGAGSGAGAGSGAGAGSGAGAGSGVGVPGVGVPGVGVPGVGVPGEGVPGVGVPGVGEPGVGVPGAGAGSGAGAGSGAGAGSGAGAGSGVGVPGVGVPGVGVPGVGVPGEGVPGVGVPGVGEPGVGVPGAGAGSGAGAGSGAGAGSGAGAGSGVGVPGVGVPGVGVPGVGVPGEGVPGVGVPGVGEPGVGVPGAGAGSGAGAGSGAGAGSGAGAGSGVGVPGVGVPGVGVPGVGVPGEGVPGVGVPGVGEPGVGVPGAGAGSGAGAGSGAGAMDPGRYQDLRSHHHHHH
# modifications: SELP 47E-13
# notes: SELP variant, 13 subunits, lysine substituted by glutamic acid
# Experiment: Isoelectric point determination (IEF gel)
# Assay type: physicochemical
# Conditions: SELP variants, Table 2
# Experimental: In this Example, experiments performed to determine the isoelectric point and cloud point of SELP47K (Example 1) are described. The isoelectric point of SELP47K was determined by electrophoresing 5 mg/ml SELP47K solution using Isoelectric Focusing Electrophoresis (IEF) gel and Novex electrophoresis apparatus along with protein standards markers.
row,Molecule,Isoelectric Point
1,B1,6.7
2,B2,5.9
3,B3,10.5
4,B4,10.53
5,B5,9.52
6,B6,4.16
